Data taken from US20190119357A1, “MESSENGER RIBONUCLEIC ACIDS FOR THE PRODUCTION OF INTRACELLULAR BINDING POLYPEPTIDES AND METHODS OF USE THEREOF” (ModernaTX, Inc., priority 2015, published 2019).
“Also recorded” adds a separate entry of the source.

What was measured:
[1] = molecular target: T1, BCL-2 (Homo sapiens, UniProt P10415); assay: Co-immunoprecipitation after mRNA transfection; type: binding; conditions: within two hours after mRNA transfection
T1 construct: endogenous in cells; host or cells: cells transfected with SQT-BH3 mRNA (HeLa by context)

[2] = tested on: Hep3B cells; assay: Cell death by YOYO-3 with MC3-formulated LNPs; type: cell-based; conditions: for apoptosis and cell death (YOYO-3): relatively high concentration
Protocol: The efficacy of mRNAs encoding SQT-BH3 constructs in inducing cell death was tested both in hepatocellular carcinoma cell lines as well as in primary hepatocytes using lipid nanoparticle (LNP)-formulated constructs. Hep3B cells were treated with varying doses (0.78 ng to 50 ng) of MC3-formulated LNPs in the presence of YOYO-3 (Life Technologies), a DNA dye that is taken up preferentially by dead cells that is used to measure the extent of cell death. MC3 lipid nanoparticles included MC3 50%, DSPC 10%, Cholesterol 38.5%, PEG-DMG 1.5%, N:P ˜5.5.

[3] = tested on: Hep3B cells; assay: Sorafenib combination, YOYO-3 apoptosis on IncuCyte ZOOM; type: cell-based
Protocol: To determine the effect of SQT-BH3 constructs in combination with the protein tyrosine kinase inhibitor Sorafenib on liver cells, 20,000 Hep3B cells/well in a 96 well plate were treated with increasing amounts of sorafenib tosylate (Selleck Chemicals) and transfected with LNPs containing SQT-PUMA-BH3 (68 pM) or SQT-Bad-BH3 (550pM).

[4] = tested on: primary hepatocytes; assay: Apoptosis induction by MC3 LNP-formulated mRNAs in primary hepatocytes cultured in vitro; type: cell-based; conditions: for PARP-1 cleavage: LNPs
[5] = tested on: HeLa cells; assay: PARP-1 cleavage by SDS-PAGE and Western blotting after transfection of mRNAs encoding SQT-BH3 constructs; type: cell-based
Excerpt: The cleavage of PARP-1 was detected by the appearance of a faster-migrating band and concomitant loss of the full-length band by SDS-PAGE and Western blotting. Western blotting with anti-actin antibodies served as a loading control.

[6] = tested on: Hep3B cells; assay: SQT-BH3 in combination with siMCL1 or sorafenib, YOYO-3; type: cell-based; conditions: 10 uM sorafenib tosylate, 24 hours after treatment
[7] = tested on: primary mouse hepatocytes; assay: Sorafenib combination in primary mouse hepatocytes; type: cell-based; conditions: SQT-PUMA-BH3 205 pM or 1100 pM, SQT-Bad-BH3 549 pM or 1100 pM, sorafenib 0-10 uM
Protocol: Similar combination experiments were performed with primary mouse hepatocytes, treated with SQT-PUMA-BH3 (205 pM or 1100 pM) or SQT-Bad-BH3 (549 pM or 1100 pM) in combination with sorafenib (0-10 μM). […] Thus, normal primary liver cells are spared by the combination treatment, indicating the combination treatment can selectively kill liver cancer cells over normal liver cells.

[8] = molecular target: T2, BCL-XL (Homo sapiens, UniProt Q07817); assay: Co-immunoprecipitation after mRNA transfection; type: binding; conditions: within two hours after mRNA transfection
T2 construct: endogenous in cells; host or cells: cells transfected with SQT-BH3 mRNA (HeLa by context)

[9] = tested on: HeLa cells; assay: Long-term live cell imaging of GFP-positive cells after mRNA transfection; type: cell-based
[10] = tested on: primary hepatocytes; conditions: 10uM sorafenib tosylate, 24 hours after treatment
Protocol: Controls were an empty SQT construct (“SQT-dummy”), a non-targeting siRNA and PBS. For treatment of Hep3B cells, 20,000 Hep3B cells/well per plated in 96-well plates. At Day 1, some wells were transfected with siMCL1 (Dharmacon, ON-TARGETplus Human MCL1 (4170) siRNA-SMARTpool, # L-004501-00-0005) or non-targeting siRNA (ON-TARGETplus Non-targeting Control Pool, # D-001810-10-05). […] 24 hours after treatment, YOYO®-3 iodide (Life Technologies) viability dye was added to each well and cell death was measured on an IncuCyte ZOOM® using YOYO-3 fluorescence as a readout (=“Apoptosis”). For treatment of primary hepatocytes, 18,000 mouse hepatocytes (Gibco) were seeded in each well of a 96-well plate. At Day 1, some wells were transfected with siMCL1 (Dharmacon, SMARTpool: ON-TARGETplus Mc11 siRNA, # L-062229-00-0005) or non-targeting siRNA (ON-TARGETplus Non-targeting Control Pool, # D-001810-10-05). […] 24 hours after treatment, Caspase 3/7 reagent (EssenBio) apoptosis dye was added to each well and cell death was measured on an IncuCyte ZOOM® using the caspase 3/7 reagent fluorescence as a readout (=“Apoptosis”).

[11] = tested on: HepG2 cells; assay: Cell death by YOYO3 with MC3 LNPs; type: cell-based
[12] = tested on: Hep3B cells; assay: Efficiency of cell killing at low mRNA dose and dose-response; type: cell-based
[13] = tested on: human melanoma cells (A375); assay: Cell death after mRNA transfection; type: cell-based
[14] = tested on: human hepatocellular carcinoma (Hep G2) cells; assay: Cell death and morphology after mRNA transfection; type: cell-based
Excerpt: A representative graph of the apoptotic ability of the SQT-BH3 constructs is shown in FIG. 2, showing the cell killing capacity of the SQT-BH3 constructs in Hep G2 cells.

[15] = molecular target: T3, MCL-1 (Homo sapiens, UniProt Q07820); assay: Co-immunoprecipitation in lysates of transfected HeLa cells; type: binding; conditions: lysates of HeLa cells transfected with mRNAs
T3 construct: performed in lysates of HeLa cells transfected with mRNAs encoding SQT-BH3 constructs; endogenous in cells; host or cells: HeLa

[16] = tested on: HeLa cells; assay: Efficiency of cell killing at low mRNA dose; type: cell-based; conditions: approximately 0.78 ng mRNA
[17] = tested on: Hep3B cells; assay: Anti-MCL1 mmRNA construct combined with SQT-PUMA-BH3, YOYO-3; type: cell-based; conditions: 50 ng anti-MCL1 mRNA, 1.6 ng SQT-PUMA-BH3, L2K, 48 hours
Protocol: The anti-MCL1 mmRNA construct was tested for synergistic killing when combined with SQT-PUMA-BH3 in Hep3B cells. 20,000 Hep3B cells were seeded per well in 96-well plates. Each well was transfected with (a) 1.6 ng SQT-empty (“SQT-dummy”) or SQT-PUMA-BH3; and (b) 50 ng or 12.5 ng anti-MCL1 mRNA. Transfections of mRNA were done with Lipofectamine 2000 (L2K). After 48 hours, apoptosis measurements performed using YOYO-3 viability dye in an Incucyte instrument.

T1 sequence (P10415 whole entry): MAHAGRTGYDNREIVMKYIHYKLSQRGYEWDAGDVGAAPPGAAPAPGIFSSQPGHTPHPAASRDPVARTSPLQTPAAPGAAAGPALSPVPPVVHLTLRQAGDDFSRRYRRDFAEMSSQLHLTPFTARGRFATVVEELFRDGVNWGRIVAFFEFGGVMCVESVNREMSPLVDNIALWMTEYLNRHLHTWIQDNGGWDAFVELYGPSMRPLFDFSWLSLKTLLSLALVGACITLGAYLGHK
T2 sequence (Q07817 whole entry): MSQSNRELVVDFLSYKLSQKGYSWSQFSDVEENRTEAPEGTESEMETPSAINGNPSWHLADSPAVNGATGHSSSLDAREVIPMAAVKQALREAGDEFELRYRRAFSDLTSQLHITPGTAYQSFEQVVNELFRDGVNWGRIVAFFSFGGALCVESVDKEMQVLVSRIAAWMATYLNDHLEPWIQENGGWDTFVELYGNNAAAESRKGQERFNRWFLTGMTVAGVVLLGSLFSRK
T3 sequence (Q07820 whole entry): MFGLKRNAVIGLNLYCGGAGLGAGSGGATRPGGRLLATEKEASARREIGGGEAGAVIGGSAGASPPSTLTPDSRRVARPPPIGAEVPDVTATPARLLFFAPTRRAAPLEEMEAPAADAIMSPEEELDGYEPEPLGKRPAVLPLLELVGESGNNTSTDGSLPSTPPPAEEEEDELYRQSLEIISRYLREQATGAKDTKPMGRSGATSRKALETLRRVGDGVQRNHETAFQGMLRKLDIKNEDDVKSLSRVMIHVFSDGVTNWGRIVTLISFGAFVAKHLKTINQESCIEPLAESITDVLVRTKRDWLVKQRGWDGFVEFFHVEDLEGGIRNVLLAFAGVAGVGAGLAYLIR

B1: SQT-Bad-BH3: mRNA (SEQ ID NO: 51, FLAG) encoding SQT scaffold with Bad BH3 domain in N-terminus (nucleic acid)
chain: ATGATCCCAAGAAACCTGTGGGCTGCACAACGCTACGGAAGAGAACTGCGCCGGATGAGCGACGAATTTGTGGACTCGTTCAAGAAGGGGGGACTCTCAGAAGCGAAGCCTGCCACCCCCGAAATCCAGGAAATCGTCGACAAGGTCAAGCCGCAGCTTGAGGAAAAGACCAACGAGACTTACGGAAAACTGGAGGCCGTGCAGTATAAGACCCAAGTGTTGGCCTCCACCAACTACTACATTAAGGTCCGCGCCGGCGATAACAAGTACATGCACCTGAAGGTGTTCAATGGTCCTCCGGGACAGAACGCGGACAGGGTGCTGACTGGCTACCAAGTGGACAAGAACAAGGACGACGAGCTGACGGGCTTCGACTACAAGGATGATGATGACAAA
modifications: FLAG tag; Synthetic SQT-BAD-BH3 mRNA sequence with FLAG epitope tag
B1 was tested, and the “interaction with BCL-2 by co-immunoprecipitation” value [1] was “also able to co-immunoprecipitate BCL-XL and BCL-2, although to a lesser extent than SQT-PUMA-BH3 and SQT-Bim-BH3”, the “apoptosis and cell death (YOYO-3)” value [2] was “behaved similar to the empty MC3 LNP control and mRNAs encoding SQT” and the “nature of combination effect with sorafenib” value ([3]; SQT-PUMA-BH3 68 pM or SQT-Bad-BH3 550pM) was “synergistic effect”. The “apoptosis (YOYO-3), combination with sorafenib vs sorafenib alone” value ([3]; SQT-PUMA-BH3 68 pM or SQT-Bad-BH3 550pM in LNPs, increasing sorafenib tosylate) was “increased apoptosis of the liver cells as compared to treatment with sorafenib alone”, the PARP-1 cleavage [4] was “did not” and the “PARP-1 cleavage, extent” value ([5]; 4 hours after transfection) was “also induced PARP-1 cleavage, although to a lesser extent than SQT-PUMA-BH3 or SQT-Bim-BH3”. The “apoptosis (YOYO-3) in combination with either siMCL1 or sorafenib” value [6] was “led to a marked increase in apoptosis as compared to treatment with the SQT-BH3 construct in combination with non-targeting siRNA or PBS; also recorded: synergistic pro-apoptotic effect”, the “apoptosis in combination with sorafenib” value [7] was “neither SQT-BH3 construct, in combination with sorafenib, caused apoptosis” and the “interaction with BCL-XL by co-immunoprecipitation” value [8] was “also able to co-immunoprecipitate BCL-XL and BCL-2, although to a lesser extent than SQT-PUMA-BH3 and SQT-Bim-BH3”. The cell-killing activity [9] was “did not show cell-killing activity” and the “apoptosis (caspase 3/7) in combination with siMCL1, sorafenib or controls” value [10] was “did not lead to increased apoptosis as compared to treatment with the control SQT-dummy construct”.

B2: SQT-Bim-BH3: mRNA (SEQ ID NO: 50, FLAG) encoding SQT scaffold with Bim BH3 domain in N-terminus (nucleic acid)
chain: ATGATCCCAAGAGACATGCGCCCCGAAATTTGGATCGCCCAGGAGCTCAGACGCATCGGAGATGAATTCAACGCATACTACGCTCGGCGGGGACTCTCAGAAGCGAAGCCTGCCACCCCCGAAATCCAGGAAATCGTCGACAAGGTCAAGCCGCAGCTTGAGGAAAAGACCAACGAGACTTACGGAAAACTGGAGGCCGTGCAGTATAAGACCCAAGTGTTGGCCTCCACCAACTACTACATTAAGGTCCGCGCCGGCGATAACAAGTACATGCACCTGAAGGTGTTCAATGGTCCTCCGGGACAGAACGCGGACAGGGTGCTGACTGGCTACCAAGTGGACAAGAACAAGGACGACGAGCTGACGGGCTTCGACTACAAGGATGATGATGACAAA
modifications: FLAG tag; Synthetic SQT-BIM-BH3 mRNA sequence with FLAG epitope tag
In the case of B2, the “cell death (YOYO3 staining)” value [11] is reported as “lead to cell death; also recorded: kills HepG2 cells”, the “efficacy and timing of cell death, comparison” value [11] is reported as “induced cell death with an increase in both efficacy and timing compared to SQT-PUMA-BH3” and the “interaction with BCL-2 by co-immunoprecipitation” value [1] is reported as “to a lesser extent”. The “cell killing (YOYO-3)” value ([2]; four-fold lower concentration) was “induced cell killing in Hep3B cells more efficiently than SQT-PUMA-BH3”, the “apoptosis and cell death (YOYO-3)” value [2] was “both induced apoptosis and cell death; also recorded: kills Hep3B cells at higher concentrations” and the “efficiency of cell killing” value ([12]; Hep3B cells, approximately 0.78 ng mRNA) was “killed both HeLa cells and Hep3B cells with greater efficiency than SQT-PUMA-BH3”. The “cell killing, dose-response curve” value ([12]; Hep3B, 12 hours after transfection, L2K lipid nanoparticles) was “more efficient cell killing by SQT-Bim-BH3 at low doses”, the PARP-1 cleavage [4] was “also induced PARP-1 cleavage in primary hepatocytes” and the “apoptosis (YOYO-3 dye uptake and fluorescence) as a function of time” value ([4]; MC3-LNP-formulated) was “induce apoptosis”. For the same molecule, the cell death [13] was “caused rapid cell death almost immediately following transfection”, the “cell death of transfected cells” value ([5]; from anti-FLAG and anti-GFP Western blotting) was “underwent cell death” and the cell death [14] was “caused rapid cell death almost immediately following transfection; also recorded: underwent cell death almost immediately following transfection”. The cell morphology [14] was “rounded-up cell morphology that is characteristic of apoptotic cells”, the “interaction with BCL-XL by co-immunoprecipitation” value [8] was “able interact” and the “co-immunoprecipitation of MCL-1” value [15] was “able to co-immunoprecipitate”. The “efficiency of cell killing” value [16] was “killed both HeLa cells and Hep3B cells with greater efficiency than SQT-PUMA-BH3”.

B3: SQT.(nt)Mcl1.BH3.cv5: anti-MCL1 mmRNA construct, ORF amino acid SEQ ID NO: 108, nucleotide SEQ ID NO: 112, v5 tag (nucleic acid)
chain: ATGATCCCTAGGAAGGCCCTGGAGACCCTGAGGAGAGTGGGCGACGGAGTGCAGAGGAACCACGAGACCGCCTTCGGCCTGAGCGAGGCAAAGCCAGCAACACCCGAGATCCAGGAGATCGTGGATAAGGTGAAGCCCCAGCTGGAGGAGAAGACCAATGAGACATACGGCAAGCTGGAGGCCGTGCAGTATAAGACCCAGGTGCTGGCCTCCACAAACTACTATATCAAGGTGCGGGCCGGCGACAATAAGTACATGCACCTGAAGGTGTTCAACGGACCACCTGGACAGAATGCAGACAGGGTGCTGACCGGCTATCAGGTGGATAAGAACAAGGACGATGAGCTGACAGGCTTTGGCAAGCCAATCCCCAATCCTCTGCTGGGCCTGGATTCTACA
modifications: V5 tag; Synthetic SQT.(nt)Mcl1.BH3.cv5
B3 was tested, and the “apoptosis (YOYO-3) in combination with SQT-PUMA-BH3” value ([17]; listed as anti-MCL1 construct) was “synergistic anti-apoptotic effect in combination with SQT-PUMA-BH3” and the “apoptosis (YOYO-3) in combination with SQT-PUMA-BH3” value ([17]; listed as anti-MCL1 mRNA construct) was “synergistic pro-apoptotic effects”.
